Measurements as given in paper PMC7987009 (bioRxiv, 2021).

B1: Nb36 (VHH)
VHH: VQLVESGGGLVQAGGSLTLTCAASGRTFSSETMDMGWFRQAPGKEREFVAADSWNDGSTYYADSVKGRFTISRDSAKNTLYLQMNSLKPEDTAVYYCAAETYSIYEKDDSWGYWGQGTQVTVS
B2: Nb17 (VHH)
VHH: HVQLVESGGGLVQAGGSLRLSCAASGSIFSSNAMSWYRQAPGKQRELVASITSGGNADYADSVKGRFTISRDKNTVYPEMSSLKPADTAVYYCHAVGQEASAYAPRAYWGQGTQVTVSS
B3: Nb21 (VHH)
VHH: QVQLVESGGGLVQAGGSLRLSCAVSGLGAHRVGWFRRAPGKEREFVAAIGANGGNTNYLDSVKGRFTISRDNAKNTIYLQMNSLKPQDTAVYYCAARDIETAEYTYWGQGTQVTVSS

Biological target: SARS-CoV-2 spike receptor-binding domain (RBD), wild type (SARS-CoV-2, Wuhan-Hu-1 (wild type), UniProt P0DTC2)
Assay: cryo-EM structure

Binder	binding result
B1	binds
B2	binds
B3	binds
